Data from paper PMC3351107 (Cerebellum (London, England), 2009).

Legend:
[1] = target: T1, myo-inositol monophosphatase 1 (IMPA1), purified bovine brain (bovine, UniProt P20456 1-277); assay: cross-linking
T1 sequence (looked up): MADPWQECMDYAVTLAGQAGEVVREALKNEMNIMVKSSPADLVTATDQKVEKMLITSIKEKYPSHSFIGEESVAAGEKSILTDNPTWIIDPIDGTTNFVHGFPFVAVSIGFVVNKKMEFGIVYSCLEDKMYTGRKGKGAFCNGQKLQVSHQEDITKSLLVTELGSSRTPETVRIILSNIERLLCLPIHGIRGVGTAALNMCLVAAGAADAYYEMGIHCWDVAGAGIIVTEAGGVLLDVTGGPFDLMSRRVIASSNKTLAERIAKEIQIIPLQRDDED

cross-linking = target: the molecule itself; assay: cross-linking

binding result [1]: binds
B1: S100B, purified bovine brain (natural protein, UniProt P02638 1-92, looked up)
chain: MSELEKAVVALIDVFHQYSGREGDKHKLKKSELKELINNELSHFLEEIKEQEVVDKVMETLDSDGDGECDFQEFMAFVAMITTACHEFFEHE
binding result (cross-linking): binds
